{
  "source": "paper PMC10174515",
  "substrate": "O=C(O)C(=O)O",
  "experiment": "purified protein",
  "conditions": "pH 3.1, 37 °C, MBTH 0.11 mM, DMAB 1.6 mM, HRP 0.1 U/ml, potassium oxalate, concentrations up to 400 uM, substrate (product) inhibition data excluded",
  "data": [
    {"protein": "barley oxalate oxidase (OxOx) (Hordeum vulgare) (protein) SDPDPLQDFCVADLDGKAVSVNGHTCKPMSEAGDDFLFSSKLTKAGNTSTPNGSAVTELDVAEWPGTNTLGVSMNRVDFAPGGTNPPHIHPRATEIGMVMKGELLVGILGSLDSGNKLYSRVVRAGETFVIPRGLMHFQFNVGKTEAYMVVSFNSQNPGIVFVPLTLFGSDPPIPTPVLTKALRVEAGVVELLKSKFAGGS", "values": [
      {"measurement": "Km", "result": 256, "unit": "µM"}
    ]}
  ]
}
